In experiment [1] the target is Crotalus durissus terrificus (C.d.t.) venom. The experiment can be described thus: ELISA, venom-coated wells; dilution 1:62,500. (In general: ELISA stands for enzyme-linked immunosorbent assay.)
The target is the same in experiment [2]. In words: ELISA, venom-coated wells; dilution 1:5.
Experiment [3] has the same target. In words: ELISA, venom-coated wells (5 µg/ml); dilution 1:625.
Experiment [4] shares this target. The experiment can be described thus: ELISA, venom-coated wells; dilution 1:125.
Experiment [5] shares this target. In words: ELISA, venom-coated wells; dilution 1:312,500.
Experiment [6] shares this target. The experiment can be described thus: ELISA, venom-coated wells (5 µg/ml); dilution 1:125.
Experiment [7] has the same target. In words: ELISA, venom-coated wells; dilution 1:25.
For experiment [8] the target is unchanged. In words: ELISA, venom-coated wells (5 µg/ml); dilution 1:3125.
Experiment [9] shares this target. The experiment can be described thus: ELISA, venom-coated wells; dilution 1:625.
Experiment [10] shares this target. The experiment can be described thus: ELISA, venom-coated wells; dilution 1:3125.
Experiment [11] shares this target. The experiment can be described thus: ELISA, venom-coated wells (5 µg/ml); undiluted.
Experiment [12] shares this target. The experiment can be described thus: ELISA, venom-coated wells (5 µg/ml); dilution 1:25.
Experiment [13] shares this target. The experiment can be described thus: ELISA, venom-coated wells (5 µg/ml); dilution 1:5.

Take “preimmune IgY (PEG preparation from eggs of unimmunized hens) (antibody)”: the absorbance 412 nm in [1] is 0.001 absorbance; in experiment [2] it was < 0 absorbance; in [3], 0 absorbance; in experiment [4] it was < 0 absorbance; in experiment [5], 0.01 absorbance; in [6], 0.003 absorbance. Further, the absorbance 412 nm in experiment [7] was 0.016 absorbance; in experiment [8], 0.002 absorbance; in experiment [9] it was < 0 absorbance; in experiment [10], < 0 absorbance; in [11], 0.003 absorbance; in experiment [12], 0 absorbance. The absorbance 412 nm in experiment [13] was < 0 absorbance.

(Values after patent publication US20070269861A1.)
